{"source": "patent US20230399406A1", "biological_target": "human PD-L1 (programmed death-ligand 1) (human) (UniProt Q9NZQ7)", "sequence (Q9NZQ7 19-290)": "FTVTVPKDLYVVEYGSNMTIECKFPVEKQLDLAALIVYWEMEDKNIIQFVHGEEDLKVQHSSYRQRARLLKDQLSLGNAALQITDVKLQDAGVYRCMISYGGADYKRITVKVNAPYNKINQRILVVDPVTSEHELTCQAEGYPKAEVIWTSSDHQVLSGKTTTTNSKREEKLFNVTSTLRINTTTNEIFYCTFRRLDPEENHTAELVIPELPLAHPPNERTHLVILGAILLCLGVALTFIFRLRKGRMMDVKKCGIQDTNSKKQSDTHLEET", "assay": "cell-based or functional assay"}
{"substance": "Untargeted (BcII10 VHH) chimera", "values": [{"measurement": "STAT1 phosphorylation (phospho STAT1 MFI, FACS) in MDA-MB-321 cells", "value": 100, "unit": "ng/mL"}]}
